Substitutions are numbered along the chain they refer to.
B1: C545 (antibody, V domains shown)
VH: EVQLLESGGGLVKPGGSLRLSCAASGFTFSDYSMTWVRQAPGKGLEWVSFISSSSTYIYYADSVKGRFTISRDNAKSSLYLQMNRLRAEDTAVYYCTRVQVGARGWADYWGQGTLVTVSS
VL: NFMLTQPLSVSESPGKTVTISCTRSSGSIASNYVQWYQQRPGGAPTTVIYEDTQRPSGVPDRFSGSIDSSSNSASLTISGLKTEDEADYYCQSCDTINWVFGGGTKLTVV
B2: C537 (antibody, V domains shown)
VH: QLQLQESGPGLVKPSETLSLTCTVSGGAISSRNYHWGWIRQPPGKGLEWIGSIYYSGSTYYSPSLKSRVTISVDTSKNQFSLRLSSVTAADTAVYYCARLETSGWYTEDVFDIWGQGTMVTVSS
VL: DIQMTQSPSSLSASVGDRVTITCRASQSISSYLNWYQQKPGKAPKLLIYAASSLQSGVPSRFSGSGSGTDFTLTISSLLPEDFATYYCQRSYSAMYTFGQGTKLEIK
B3: C543 (antibody, V domains shown)
VH: QVQLVESGGGVVQPGRSLRLSCTASGFTFSTAGMHWVRQAPGKGLEWVAVISYDGSNKDYADSVKGRFTISRDNSKSTLYLQMNSLRPEDTAVYYCAKDTPGGDDIMTGWGLYGMDVWGQGTTVTVSS
VL: B2 VL with Q37H, S52I, S67F, L79Q, T85I, R90Q, A94T, M95P, Y96W, L104V
B4: C547 (antibody, V domains shown)
VH: B3 VH with T23A, T31S, A32Y, D59Y, S77N, P88A, M107L
VL: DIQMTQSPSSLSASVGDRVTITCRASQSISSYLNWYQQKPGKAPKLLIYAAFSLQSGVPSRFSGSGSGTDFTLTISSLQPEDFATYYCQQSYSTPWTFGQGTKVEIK
B5: C535 (antibody, V domains shown)
VH: EVQLVESGGALVQPGRSLRLSCAASGFTFDDYAMHWVRQAPGKGLEWVSSISWNGVSIGYADSVRGRFTISRDNAKNSLYLQMNSLKIGDTAFYYCARGLDGSSSASPDSWGQGTLVTVSS
VL: DIQMTQSPSSVSASVGDRVTITCRASQGIGSWLAWYQQKPGKAPKLLIYLASSLQSGVPSRFSGSGSGTYFTLTISGLQPEDFATYYCQQGNSFPLTFGGGTKVEIK
B6: C544 (antibody, V domains shown)
VH: QVQLVQSGAEVKKPGASVKVSCKASGYTFSSHDINWVRQATGQGLEWVGWMNPNSGNTGSAQSFQGRVTLTRNASISTAYLELSSLRSEDTAVYFCARGFSLTWYFDLWGRGTLVTVSS
VL: SYELTQPPSVSAAPGKTARITCGGNNIGGKNVHWYQQKPGQAPVLVVFDDSDRPSGIPERFSGSNSGNTATLTISRVEAGDEADYYCQLWDSTSDHPDVVFGGGTQLTVL
B7: C536 (antibody, V domains shown)
VH: QVQLVESGGGLVKPGRSLRLSCTVSGFTFGAYAMSWFRQAPGKGLEWVGFIRSKTYGGTTEYAASLKGRFTISRDDSKSIAFLQMNSLKTEDTAVYFCSRGGYYDGSPYYWNRPDAFDIWGLGTMVTVS
VL: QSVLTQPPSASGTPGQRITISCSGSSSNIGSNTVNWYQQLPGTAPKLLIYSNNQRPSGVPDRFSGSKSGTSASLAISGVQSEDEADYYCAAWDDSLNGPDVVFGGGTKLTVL
B8: C539 (antibody, V domains shown)
VH: EVQLVESGGGLVQPGRSLRLSCAASGFTFDDYALHWVRQAPGKGLEWVSGISWNGDSIGYADSVKGRFTISRDNAKNSLSLQMNSLTAEDTALYYCAKGVEYSSSSNCDYWGQGTLVTVSS
VL: DIQMTQSPSSVSASVGDRVTITCRASQDISSWLAWYQQKPGKAPKLLISLASGLQSGVPSRFSGSGSETDFTLTISSLQPEDFATYYCQQTNSFPLTFGGGTKVEI
B9: C548 (antibody, V domains shown)
VH: QVQLVQSGAEVKKPGSSVKVSCKASGGTFSSYAISWVRQAPGQGLEWMGGIIPIFGTANYAQKFQGRVTITADESTSTAYMELSSLRSEDTAVYYCARREAYGPRDYYYYYGMDVWGQGTTVTVSS
VL: QSALTQPPSASASLGASVTLTCTLSSGYSNYKVDWYQQRPGKGPRFVMRVGTGGIVGSKGDGIPDRFSVLGSGLNRYLTIKNIQEEDESDYHCGADQGSGSNFVGVFGGGTKLTVL
B10: C546 (antibody, V domains shown)
VH: EVQLLESGGGLVHPGGSLRLSCAASGFTFSTYAMHWVRQAPGKGLEWVSAISGSGTGTFYADSVKGRFSISRDNSKNTLYLQMNSLRAEDTAVYYCATERIAVSDTRMYNWFDPWGQGTLVTVSS
VL: DIQMTQSPSSLSASVGDRVTLTCRASQGISTYLNWYQQKPGKAPNLLIYAASSLQSGVPSRFSGSGSGTDFTLTISSLQPEDFATYYCQQSYSAPPWTFGQGTKVEIK
B11: C542 (antibody, V domains shown)
VH: EVQLVESGGGLVQPGGSLRLSCAASGLTVTSNYMSWVRQAPGRGLEWVSLIYPGGTTYYADSVKGRFTVSRDNSKNTLYLQMDSLRAEDTGVYYCARETLGRGGDCWGQGTLVTVSS
VL: DIQMTQSPSSLSASVGDRVTITCQASQDISNFLNWYQQKPGKAPKLLIYDASNLETGVPSRFSGSRSGTDFTFTISSLQPDDIATYYCQQYDNLPRSFGQGTKLEIK
B12: C538 (antibody, V domains shown)
VH: QLQLQESGPGLVKPSETLSLTCTVSGGSISSSSYYWAWIRQPPGKGLEWIGNIYYSGITYYSPSLKSRVTISVDTSKNQFSLKLRSVTAADTAVYYCARQHRYGSGSSELLWGQGTLVTVSS
VL: QSALTQPPSASGSPGQSVTISCTGTSSDVGSYNYVSWYQQHPGKAPKLMIYEVTKRPSGVPDRFSGSKSGNTASLTVSGLQADDEADYYCSSYAGSSNLIFGGGTKLTVL
B13: C540 (antibody, V domains shown)
VH: EVQLVESGGGLVQPGGSLRLSCAASGFTFRNYDMHWVRQVAGKGLEWVSAIGTSGDTYYPDSVKGRFTISRENAKNSVYLQMNNLRAGDTAVYFCVRDREISGWTGWYFDLWGRGTLVTVSS
VL: DIQMTQSPSSLSASVGDRVTITCRASQTIHNYLNWYQQIPGKAPRLLIYATNTLQSGVPSRFSGSGSGTDFTLTITGLQPEDFATYYCQQSYSTPPITFGQGTRLEIK
B14: C549 (antibody, V domains shown)
VH: QVQLVQSGAEVKKPGSSVKVSCKASGGTFSTSAISWVRQAPGQGLEWMGGIIPFFGTPNYAQKFQGRVTIIADESTTTAYMELSGLRFEDSAVYYCARREPYGPRDYYYFFGMDVWGPGTTVTVSS
VL: QSALTQPPFASASLGASVTLTCTLSSDYSYYKVDWYQQRPGKGPRFVIRVGPGGIVGSKGDGFPDRFSVLGSGLNRSLTINNIQEEDEGDYHCGADEGSGGTFVGVFGGGTKLTV
B15: C515 (antibody, V domains shown)
VH: EVQLVESGGGLVQPGGSLRLSCAASGFIVSSNYMSWVRQAPGKGLEWVSILYSGGSTYYADSVKGRFTISRDNSKNTLYLQMNSLRAEDTAVYYCARDLVVYGADYWGQGTLVTVSS
VL: DIQLTQSPSFLSASVGDRVTITCRASQGISSYLAWYQQKPGKAPKLLIYAASTLQSGVPSRFSGSGSGTEFTLTISSLQPEDFATYYCQQLNSYPPPFGGGTKVEIK
B16: C511 (antibody, V domains shown)
VH: EVQLVESGGGLVQPGGSLRLSCAATEITVSSNYMTWVRQAPGKGLEWVSVIYPGGSTFYADSVKGRFSISRDNSKNTLYLQMNSLRAEDTAVYYCARDLVVYGLDCWGQGTLVTVSS
VL: B15 VL with S93T
B17: C132 (antibody, V domains shown)
VH: QVQLQESGPGLVKPSGTLSLTCAVSGGSISSNNWWSCVRQPPGKGLEWIGEIYHSGSTNYNPSLKSRVTISVDKSKNQFSLKLSSVTAADTAVYYCARGGDTAMGPEYFDYWGQGTLVTVSS
VL: QSALTQPASVSGSPGQSITISCTGTSSDVGGYNYVSWYQQHPGKAPKLMIYDVSNRPSGVSNRFSGSKSGNTASLTISGLQAEDEADYYCSSYTSSSTLLFGGGTKLTVL
B18: C512 (antibody, V domains shown)
VH: B17 VH with G26A, C37W, I52V, S55N, S57N, T58I, I70L, R98K, T102R, Y111S
VL: B17 VL with G31A, Y32N, S54N, N55E, A82T, Y93F, T94A
B19: C073 (antibody, V domains shown)
VH: QLQLQESGPGLVKPSETLSLTCTVSGASIPSSTSYWGWIRQPPGKGLEWIGSIYYTGSTYYNPSLKSRVTISVDTSKNHFSLILSSVTAADTAVYYCARRSITLAGRDCLDFWGQGTLVTVSS
VL: DIQLTQSPSSLSASVGDRLTITCRASQSITTSLNWYQQKPGKAPKLLIYAASSLQSGVPSRFSGSGSGTDFTLAISSLQPEDFATYYCQQSYIPLLTFGGGTKVDIK
B20: C516 (antibody, V domains shown)
VH: QVQLVQSGAEVKKPGSSVKVSCKASGGTFSSYAISWVRQAPGQGLEWMGRIIPMLVIATYARKFQGRVTITADKSTSTAYMELSSLRSEDTAVYYCARGVVAATPGNFDIWGQGTMVTVSS
VL: EIVMTQSPATLSVSPGERATLSCRASQSVSSNLAWYQQKPGQAPRLLIYGASTRATGIPARFSGSGSGTEFTLTISSLQSEDFAVYYCQQYNNGLTFGGGTKVEIK
B21: C502 (antibody, V domains shown)
VH: QVQLVQSGAEVKKPGSSVKVSCKASGDTFSSHAINWVRQAPGQGLEWMGRSIPMLGVTTSAQKFKGRVTITADHSTSTVFMDLSSLRSDDTAIYYCARGVVGATPGSFDLWGQGTMVTVSS
VL: B20 VL with E17K, S30R, K39R, G50D, S52A, A60T, N92D
B22: C077 (antibody, V domains shown)
VH: QVQLVQSGAEVKKPGASVKVSCKASGYTFTSYAMHWVRQAPGQRLEWMGWINTDNGNTKYSQKFQGRVTITRDTSASTAYMELSSLRSEDTAVYYCAREGALTNWFDPWGQGTLVTVSS
VL: SYELTQPPSVSVAPGQTARIPCGGNNIGSKSVHWYQQKPGQAPVLVVYDDSDRPSGIPERFSGSNSGNTATLTISRVEAGDEADYYCQVWDSSSDLHVVFGGGTKLTVL
B23: C513 (antibody, V domains shown)
VH: EVQLLESGGGLVQPGGSLRLSCVASGFSFSTYAMSWVRQAPGQGLEWVSTITGTSIGTYYADSVKGRFTISRDNSKNTVFLQMKSLRAEDAAVYYCANHPLASGDEYYYYYMDVWGKGTTVTVSS
VL: EIVLTQSPDTLSLSPGERATLSCRASQSVHSKQLAWYQQKPGQAPRLLIYGASSRATGIPDRFSGSGSGTDFTLTISRLEPEDFAVYYCQQYGSIRALTFGGGTKVEIK

Each binder was assayed against SARS-CoV-2 spike protein receptor binding domain (RBD) (SARS-CoV-2, UniProt P0DTC2 319-539) (assay: ELISA, RBD coated on plate, mAb titrated).

Row | Binder | EC50 [ng/mL]
1 | B1 | 3.68
2 | B2 | 41.9
3 | B3 | 1.28
4 | B4 | 1.78
5 | B5 | 2.46
6 | B6 | 2.34
7 | B7 | 1.88
8 | B8 | 1.3
9 | B9 | 1.72
10 | B10 | 3.57
11 | B11 | 1.07
12 | B12 | 3.95
13 | B13 | 2.9
14 | B14 | 1.76

The binders below were run against SARS-CoV-2 spike receptor binding domain (RBD), S protein residues 319-539 (SARS-CoV-2, UniProt P0DTC2 319-539) (assay: ELISA on coated RBD).

Row | Binder | EC50 [ng/mL]
15 | B15 | 1.73
16 | B16 | 1.33
17 | B17 | 3.56
18 | B18 | 1.68
19 | B19 | 20.6
20 | B20 | 5.72
21 | B21 | 6.48
22 | B22 | 45.9
23 | B23 | 1.31

Source: patent US20220195015A1 (published 2022)
